In patent US20090035300A1 (published 2009):

Biological target: FLAG-CtBP1 (full-length CtBP1 in pFLAG-CMV-2), expressed in 293 HEK cells (UniProt Q13363 1-440)
Test: co-immunoprecipitation from transfected 293 HEK cells
Description: 293 HEK cells (8×10⁵) were plated in 6-well plates and transfected with 10 μl Lipofectamine 2000 (Invitrogen Life Technologies) and 1 μg of DNA. Cells were harvested one day after transfection. THP-1 cells (4×10⁶) were brought to a final volume of 0.8 ml and electroporated with 20 μg of DNA in total. Electroporation took place in a 0.2-cm cuvette (Bio-Rad) at 300 V and 960 μF. Day 6 immature human Mo-DCs were transduced with Ad5fib35hDC-SCRIPT-green fluorescence protein (GFP) at a multiplicity of infection of 1000 as described previously (Crucell, Leiden, the Netherlands) (Havenga, M J E et al. (2002) J. Virol. 76, 4612-4620.).
Whole cell lysates were prepared in 1% SDS standard lysis buffer. Equal amounts of protein were separated by SDS-PAGE electrophoresis and proteins were transferred to Protran Nitrocellulose Transfer Membrane (Schleicher and Schuell BioScience). The following primary antibodies were used; Mouse anti-GFP (0.04 μg/ml; Roche), mouse anti-myc (0.2 μg/ml; Invitrogen Life Technologies), M2 mouse anti-FLAG 1 μg/ml (Sigma-Aldrich), mouse anti-Epstein-Barr Virus (anti-EBV) mAb, BZLF1 Protein, ZEBRA, clone BZ.1 (DakoCytomation) in combination with a second HRP conjugated Goat anti-Mouse IgG (H+L) antibody (0.4 μg/ml; Pierce). Inmmunoprecipitation was performed in a standard RIPA/1% Triton X-100 buffer for 3 h at 4° C., using protein G beads. […]

binding result	Binder
no binding	YFP fusion of the acidic region of DC-SCRIPT with both motifs mutated (L593A and L648A) (pEYFP-C1), expressed in 293 HEK cells (other, also called Ac/double mut; not shown: yellow fluorescence protein (YFP) encoded by pEYFP-C1) EQEEPFDASQKRRAKVPVFQSDGESAQGSHCHEEEEEDNCYEVEPYSPGLAPQSQQLCTPEDASTKSEHAPEVLEEACKEEKEDASKGEWEKRSKGDLGAEGGQE
no binding	YFP fusion of the acidic region of DC-SCRIPT with the first motif mutated (L593A) (pEYFP-C1), expressed in 293 HEK cells (other, also called Ac/mut1; not shown: yellow fluorescence protein (YFP) encoded by pEYFP-C1) EQEEPFDASQKRRAKVPVFQSDGESAQGSHCHEEEEEDNCYEVEPYSPGLAPQSQQLCTPEDLSTKSEHAPEVLEEACKEEKEDASKGEWEKRSKGDLGAEGGQE
